Data from patent US20230330254A1 (Regeneron, published 2023).
Changes are numbered by the printed parent chain. Where two headings read alike, the source gives them in different places.

T1: full-length mouse GLP1R on HEK293/CRE-Luc/mGLP1R cells (mouse, UniProt O35659 22-463)
T1 construct: whole, on cells
T1 sequence (looked up): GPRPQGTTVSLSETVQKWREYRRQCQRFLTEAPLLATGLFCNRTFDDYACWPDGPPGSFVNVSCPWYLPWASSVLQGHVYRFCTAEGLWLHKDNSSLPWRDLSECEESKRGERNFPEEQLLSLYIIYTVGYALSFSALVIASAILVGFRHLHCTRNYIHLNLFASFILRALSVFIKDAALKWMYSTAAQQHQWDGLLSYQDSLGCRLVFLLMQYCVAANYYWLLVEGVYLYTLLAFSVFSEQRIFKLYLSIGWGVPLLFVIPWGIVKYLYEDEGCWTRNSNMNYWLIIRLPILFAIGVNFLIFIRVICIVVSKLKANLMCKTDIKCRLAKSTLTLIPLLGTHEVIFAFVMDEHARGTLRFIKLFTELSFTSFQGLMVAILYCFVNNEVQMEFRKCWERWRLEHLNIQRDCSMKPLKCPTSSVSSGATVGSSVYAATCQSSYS

T2: full-length human glucagon-like peptide 2 receptor on HEK293/CRE-Luc/hGLP2R cells (human, UniProt O95838 1-553)
T2 sequence (looked up): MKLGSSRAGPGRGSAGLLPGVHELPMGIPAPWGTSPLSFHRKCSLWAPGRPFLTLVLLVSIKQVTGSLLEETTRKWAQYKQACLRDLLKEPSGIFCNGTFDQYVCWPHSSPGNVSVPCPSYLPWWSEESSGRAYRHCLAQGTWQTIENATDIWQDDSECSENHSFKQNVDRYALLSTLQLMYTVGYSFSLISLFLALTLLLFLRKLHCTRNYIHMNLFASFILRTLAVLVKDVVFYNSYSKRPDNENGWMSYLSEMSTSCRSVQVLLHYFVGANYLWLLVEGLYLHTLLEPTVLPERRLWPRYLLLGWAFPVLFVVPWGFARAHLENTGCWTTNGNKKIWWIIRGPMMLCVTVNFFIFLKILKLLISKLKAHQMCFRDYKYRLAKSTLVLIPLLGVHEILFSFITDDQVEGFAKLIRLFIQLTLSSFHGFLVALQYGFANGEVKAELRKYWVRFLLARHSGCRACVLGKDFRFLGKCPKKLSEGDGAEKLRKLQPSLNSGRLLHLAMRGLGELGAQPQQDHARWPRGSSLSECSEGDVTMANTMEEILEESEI

T3: full-length human gastric inhibitory polypeptide receptor on HEK293/CRE-Luc/hGIPR cells (human, UniProt P48546 22-466)
T3 sequence (looked up): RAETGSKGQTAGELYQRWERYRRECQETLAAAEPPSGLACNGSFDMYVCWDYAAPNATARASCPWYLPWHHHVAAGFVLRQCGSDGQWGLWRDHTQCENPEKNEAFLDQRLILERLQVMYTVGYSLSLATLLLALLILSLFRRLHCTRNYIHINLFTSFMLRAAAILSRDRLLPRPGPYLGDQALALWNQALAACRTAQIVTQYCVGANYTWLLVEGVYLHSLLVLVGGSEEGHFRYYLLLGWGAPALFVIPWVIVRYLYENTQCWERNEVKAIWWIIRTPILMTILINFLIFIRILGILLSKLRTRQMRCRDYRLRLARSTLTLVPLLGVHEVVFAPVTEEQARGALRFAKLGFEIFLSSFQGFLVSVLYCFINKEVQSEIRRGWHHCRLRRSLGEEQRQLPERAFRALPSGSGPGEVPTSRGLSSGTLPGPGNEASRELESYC

B1: REGN9268 (antibody, human IgG4 S228P, kappa)
heavy: not shown
light: LLQGSGEIVLTQSPGTLSLSPGERDTLSCRASQSIAGRYVAWYQQKPGQAPRLLIYGASSRATGIPDRFSGSGSGTDFTLTISRLEPEDFAVYYCQQYGSSPWTFGQGTKVEIKRTVAAPSVFIFPPSDEQLKSGTASVVCLLNNFYPREAKVQWKVDNALQSGNSQESVTEQDSKDSTYSLSSTLTLSKADYEKHKVYACEVTHQGLSSPVTKSFNRGEC
notes: IgG4; Q-tag LLQGSG at the N-terminus of the light chain; also called mAb 17; REGN9268 unconjugated Ab
B2: REGN8072-M3190 (antibody, human IgG4 S228P, kappa, V domains shown)
VH: QVQLVESGGGVVQPARSLRLSCAASGFAFSRSAMHWVRQAPGKGLEWVAVISYDGSNKYYTDSVKGRFTISRDNSKNTLYLQMNTLRAEDTALYYCAKMYTTMDSFDYWGQGTLVTVSS
VL: DIQLTQSPSFLSASVGDRVTITCWASQGISSYLAWYQQKPGKAPKLLIYAASTLQSGVPSRFSGSGSGTEFTLTISSLQPEDFALYYCQQLNSYPRTFGQGTKVEIKR
modifications: linker-payload M3190 (LP11) on Gln 3 of the N-terminal Q-tag LLQGSG
notes: antibody-tethered drug conjugate; also called REGN8072 ATDC; anti-GLP1R mAb4-LP11
B3: REGN9267-M3190 (antibody, human IgG4 S228P, kappa)
heavy: not shown
light: EIVLTQSPGTLSLSPGERDTLSCRASQSIAGRYVAWYQQKPGQAPRLLIYGASSRATGIPDRFSGSGSGTDFTLTISRLEPEDFAVYYCQQYGSSPWTFGQGTKVEIKRTVAAPSVFIFPPSDEQLKSGTASVVCLLNNFYPREAKVQWKVDNALQSGNSQESVTEQDSKDSTYSLSSTLTLSKADYEKHKVYACEVTHQGLSSPVTKSFNRGEC
modifications: linker-payload M3190 (LP11) on Gln 3 of the N-terminal Q-tag LLQGSG
notes: antibody-tethered drug conjugate; Q-tag on heavy chain; also called REGN9267 ATDC
B4: REGN7990 (antibody, human IgG4 S228P, kappa, V domains shown)
VH: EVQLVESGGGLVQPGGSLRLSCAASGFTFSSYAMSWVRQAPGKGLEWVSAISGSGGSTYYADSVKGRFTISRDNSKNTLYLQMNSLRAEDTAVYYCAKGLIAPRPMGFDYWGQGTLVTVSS
VL: DIQMTQSPSSVSASVGDRVTITCRASQGINSWLAWYQQKPGKAPKLLIYAASSLQSGVPSRFSGSGSGTDFTLTISSLQPEDFATYYCHQADSFPYTFGQGTKLEIKR
notes: IgG4; Q-tag on light chain N-terminus; also called mAb 3; REGN7990 unconjugated Ab
B5: REGN15869 (antibody, human IgG4 S228P, kappa, V domains shown)
VH: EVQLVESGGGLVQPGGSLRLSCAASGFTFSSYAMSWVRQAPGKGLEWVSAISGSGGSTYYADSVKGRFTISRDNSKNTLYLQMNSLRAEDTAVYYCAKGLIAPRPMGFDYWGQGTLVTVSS
VL: B4 VL with Q55E
notes: IgG4; Q-tag on light chain N-terminus; also called REGN15869 unconjugated Ab
B6: REGN8070-M3190 (antibody, human IgG4 S228P, kappa, V domains shown)
VH: QVQLVESGGGVGQPGRSLRLSCAASGFTFSRNAMHWVRQAPGKGLEWVAVISYDGSNKHYADSVKGRFTISRDNSKNTLYLEMNSLRVEDTAVYYCAKGGIPFDYWGQGTLVTVSS
VL: DIVMTQSPLSSPVTLGQPASISCRSSQSLVHFDGNTYLSWLHQRPGQPPRLLIYKISNRFSGVPDRFSGSGAGTDFTLKISRVEPEDVGVYYCMHATQFPYTFGQGTKLEIKR
modifications: linker-payload M3190 (LP11) on Gln 3 of the N-terminal Q-tag LLQGSG
notes: antibody-tethered drug conjugate; also called REGN8070 ATDC

Key:
[1] = molecular target: T4, full-length human GLP1R on HEK293/CRE-Luc/hGLP1R cells (human, UniProt P43220 24-463); assay: flow cytometry, hGLP1R cells
T4 construct: whole, on cells

[2] = molecular target: T5, full-length cynomolgus GLP1R on HEK293/CRE-Luc/mfGLP1R cells (cynomolgus, UniProt F8V479 24-463); assay: flow cytometry, mfGLP1R cells
T5 construct: whole, on cells

[3] = molecular target: T1, full-length mouse GLP1R on …; assay: flow cytometry, mGLP1R cells
[4] = molecular target: T5, full-length cynomolgus GLP1R on …; assay: flow cytometry, mfGLP1R cells; remark: listed apart in the source
[5] = molecular target: T2, full-length human glucagon-like peptide …; assay: cell-based or functional assay
[6] = molecular target: T3, full-length human gastric inhibitory …; assay: cell-based or functional assay
[7] = molecular target: T5, full-length cynomolgus GLP1R on …; assay: cell-based or functional assay
[8] = molecular target: T6, full-length human glucagon receptor on HEK293/CRE-Luc/hGCGR cells (human, UniProt P47871 26-477); assay: cell-based or functional assay
[9] = molecular target: T4, full-length human GLP1R on …; assay: cell-based or functional assay
[10] = molecular target: T4, full-length human GLP1R on …; assay: cell-based or functional assay; remark: listed apart in the source
[11] = molecular target: T4, full-length human GLP1R on …; assay: flow cytometry, hGLP1R cells; remark: listed apart in the source
[12] = molecular target: T7, N-terminal ectodomain of human GLP1R expressed with a myc-myc hexahistidine tag (human, UniProt P43220 24-145, limits assumed); assay: SPR, captured via anti-hFc, 25 C
T7 construct: extracellular domain; also called hGLP1R-MMH; hGLP1R.mmh

[13] = molecular target: T2, full-length human glucagon-like peptide …; assay: cell-based or functional assay; remark: listed apart in the source
[14] = molecular target: T3, full-length human gastric inhibitory …; assay: cell-based or functional assay; remark: listed apart in the source
[15] = molecular target: T5, full-length cynomolgus GLP1R on …; assay: cell-based or functional assay; remark: listed apart in the source
[16] = molecular target: T6, full-length human glucagon receptor on …; assay: cell-based or functional assay; remark: listed apart in the source
[17] = molecular target: T4, full-length human GLP1R on …; assay: cell-based or functional assay; remark: listed apart in the source
[18] = molecular target: human GLP1R on PathHunter eXpress GLP1R CHO-K1 b-Arrestin GPCR cells (human, UniProt P43220 24-463); assay: cell-based or functional assay
[19] = molecular target: T4, full-length human GLP1R on …; assay: cell-based or functional assay; remark: listed apart in the source

T6 sequence (P47871 26-477): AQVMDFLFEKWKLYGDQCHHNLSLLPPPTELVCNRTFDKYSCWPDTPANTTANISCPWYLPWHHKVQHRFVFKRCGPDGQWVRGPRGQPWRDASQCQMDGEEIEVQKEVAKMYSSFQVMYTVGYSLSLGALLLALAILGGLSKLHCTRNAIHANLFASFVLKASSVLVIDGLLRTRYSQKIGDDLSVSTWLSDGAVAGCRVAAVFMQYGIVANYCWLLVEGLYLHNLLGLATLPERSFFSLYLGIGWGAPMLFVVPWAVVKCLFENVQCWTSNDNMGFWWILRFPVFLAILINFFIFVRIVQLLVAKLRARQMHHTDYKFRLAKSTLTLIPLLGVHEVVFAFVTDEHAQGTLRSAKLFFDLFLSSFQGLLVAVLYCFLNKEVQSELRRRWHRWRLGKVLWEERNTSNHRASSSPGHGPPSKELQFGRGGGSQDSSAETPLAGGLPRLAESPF
T7 sequence (P43220 24-145 limits assumed): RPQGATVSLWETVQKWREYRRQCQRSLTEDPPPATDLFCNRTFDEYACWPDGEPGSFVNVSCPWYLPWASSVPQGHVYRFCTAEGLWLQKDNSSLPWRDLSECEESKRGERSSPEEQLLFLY

Row | Binder | EC50 [1] | EC50 [2] | EC50 [3] | EC50 [4] | CRE-luc EC50 [5] | CRE-luc EC50 [6] | CRE-luc EC50 [7] | CRE-luc EC50 [8] | CRE-luc EC50 [9] | CRE-luc EC50 [10] | CRE-luc Relative Potency (% M2361 EC50) [10] | CRE-luc Relative Signal:Noise (% M2361) [10] | CRE-luc S/N [10] | EC50 [11] | Flow S/N [11] | 90 nM hGLP1R.mmh Bound (RU) [12] | Kd [12] | koff [12] | kon [12] | Flow S/N [4] | other results
1 | B1 | 3.33 nM | 4.13 nM | 45 nM | 0.81 nM | – | – | – | – | – | – | – | – | – | – | – | – | – | – | – | – | –
2 | B2 | – | – | – | 3.39 nM | > 200 nM | > 200 nM | 0.137 nM | > 200 nM | 0.114 nM | 0.0874 nM | 18.6% | 125% | 80.7 fold | 3.88 nM | 173 fold | 77.3 RU | 0.17 nM | 0.000297 s⁻¹ | 1.74e+06 M⁻¹ s⁻¹ | 148 fold | t1/2 [12]: 0.65 h
3 | B3 | – | – | – | 4.44 nM | > 200 nM | > 200 nM | 0.25 nM | > 200 nM | 0.212 nM | 0.0854 nM | 19% | 107% | 68.9 fold | 5.08 nM | 269 fold | 110 RU | 0.528 nM | 0.000186 s⁻¹ | 353000 M⁻¹ s⁻¹ | 212 fold | t1/2 [12]: 1.03 h
4 | B4 | 8.48 nM | 7.47 nM | 61.4 nM | 0.988 nM | – | – | – | – | – | – | – | – | – | 1.89 nM | 256 fold | – | – | – | – | 205 fold | Flow S/N [1]: 260 fold; Flow S/N [2]: 528 fold; CRE-luc EC50 [13]: > 30 nM; CRE-luc EC50 [14]: > 30 nM; CRE-luc EC50 [15]: > 30 nM; CRE-luc EC50 [16]: > 30 nM; CRE-luc EC50 [17]: > 30 nM; Flow S/N [3]: 154 fold
5 | B5 | 9.56 nM | 8.96 nM | 43.1 nM | – | – | – | – | – | – | – | – | – | – | – | – | – | – | – | – | – | b-arrestin 2 recruitment EC50 [18]: > 1000 nM; b-arrestin 2 recruitment Emax (% GLP-1) [18]: 4.3%; CRE-luc EC50 [19]: > 1000 nM; CRE-luc Emax (% GLP-1) [19]: 0.5%; Flow S/N [1]: 106 fold; Flow S/N [2]: 132 fold; CRE-luc EC50 [13]: > 30 nM; CRE-luc EC50 [14]: > 30 nM; CRE-luc EC50 [15]: > 30 nM; CRE-luc EC50 [16]: > 30 nM; CRE-luc EC50 [17]: > 30 nM; Flow S/N [3]: 53.3 fold
6 | B6 | – | – | – | 3.71 nM | > 200 nM | > 200 nM | 0.0973 nM | > 200 nM | 0.094 nM | 0.0984 nM | 16.5% | 112% | 71.8 fold | 4.39 nM | 166 fold | 86.7 RU | 0.069 nM | 6.06e-05 s⁻¹ | 878000 M⁻¹ s⁻¹ | 155 fold | t1/2 [12]: 3.17 h
